Test results from patent publication US20190040115A1 (IMMATICS BIOTECHNOLOGIES, published 2019).

Molecular target: T1, HLA-A*02:01 (human)
T1 construct: captured on streptavidin plates; also called peptide-receptive MHC molecules
Test: UV peptide exchange ELISA (anti-b2m); yield grade: + >10%, ++ >20%, +++ >50, ++++ >75%
Excerpt: Candidate peptides for T cell based therapies according to the present invention were further tested for their MHC binding capacity (affinity). The individual peptide-MHC complexes were produced by UV-ligand exchange, where a UV-sensitive peptide is cleaved upon UV-irradiation, and exchanged with the peptide of interest as analyzed. Only peptide candidates that can effectively bind and stabilize the peptide-receptive MHC molecules prevent dissociation of the MHC complexes. To determine the yield of the exchange reaction, an ELISA was performed based on the detection of the light chain (β2m) of stabilized MHC complexes. The assay was performed as generally described in Rodenko et al. (Rodenko et al., 2006).
96 well MAXISorp plates (NUNC) were coated over night with 2 ug/ml streptavidin in PBS at room temperature, washed 4× and blocked for 1 h at 37° C. in 2% BSA containing blocking buffer. Refolded HLA-A*02:01/MLA-001 monomers served as standards, covering the range of 15-500 ng/ml. Peptide-MHC monomers of the UV-exchange reaction were diluted 100 fold in blocking buffer. Samples were incubated for 1 h at 37° C., washed four times, incubated with 2 ug/ml HRP conjugated anti-β2m for 1 h at 37° C., washed again and detected with TMB solution that is stopped with […]. Absorption was measured at 450 nm. Candidate peptides that show a high exchange yield (preferably higher than 50%, most preferred higher than 75%) are generally preferred for a generation and production of antibodies or fragments thereof, and/or T cell receptors or fragments thereof, as they show sufficient avidity to the MHC molecules and prevent dissociation of the MHC complexes.

peptide exchange yield [%] | Binder
20 to 50 | VIDDLIQKL
> 75 | GLAGFFASV
50 to 75 | AVDATVNQV
50 to 75 | YLDKTFYNL
> 75 | LLDEVLHTM
> 75 | TLVAFLQQV
> 75 | IMEDFTTFL
50 to 75 | SVDEVEISV
50 to 75 | SLGLGFISRV
50 to 75 | FLDDQETRL
50 to 75 | FVDGSAIQV
> 75 | ILDDSALYL
> 75 | IQSETTVTV
50 to 75 | VLYSLVSKI
20 to 50 | TVIRPLPGL
20 to 50 | VVDDIVSKL
> 75 | FLDASGAKL
50 to 75 | SLDQIIQHL
50 to 75 | YVDDFGVSV
50 to 75 | FAYDGKDYIAL
> 75 | FLEDLVPYL
> 75 | TLIELLLPKL
> 75 | TILATVPLV

peptide exchange yield [%] | Binder
50 to 75 | KLIPSIIVL
20 to 50 | NVDENVAEL
50 to 75 | KQQASQVLV
50 to 75 | RLPDQFSKL
> 75 | KLFPSPLQTL
50 to 75 | RLEAYLARV
> 75 | KMTQYITEL
50 to 75 | TLISDIEAVKA
> 75 | VLYEMLYGL
50 to 75 | VLPAVLTRL
50 to 75 | SLDAVMPHL
> 75 | FLDVKELML
50 to 75 | FVDPNGKISL
> 75 | FLPQKIIYL
> 75 | LMDETMKEL
50 to 75 | ILPSNLLTV
50 to 75 | NLREILQNV
> 75 | YLFAFLNHL
> 75 | TLGTATFTV
> 75 | VLYDPVVGC
50 to 75 | RLDEVSREL
50 to 75 | YVIDPIKGL
50 to 75 | RLDDKTTNV

peptide exchange yield [%] | Binder
> 75 | FLGEPASYLYL
50 to 75 | HLFETISQA
50 to 75 | VLDTLTKVL
50 to 75 | GLVDVLYTA
50 to 75 | TLPNIYVTL
50 to 75 | VLDVSFNRL
50 to 75 | ALFPGDVDRL
> 75 | TMIEICEKL
50 to 75 | VLPDDLSGV
50 to 75 | TLKDIVQTV
50 to 75 | GVGPVPARA
50 to 75 | SLIDFVVTC
> 75 | YLDTFALKL
> 75 | QLMEGKVVL
50 to 75 | ILDDQTNKL
50 to 75 | ALDPAYTTL
> 75 | LLGEGIPSA
50 to 75 | ALMDTDGSGKLNL
50 to 75 | SLKQTVVTL
50 to 75 | YIDDVFMGL
> 75 | TLSEICEFI
